Assay results reported in patent US20160311878A1 (SAMSUNG ELECTRONICS, published 2016).

Target: T1, full-length HDM2 (NP_002383.2) (human, UniProt Q00987-11 1-497, limits assumed)
T1 construct: it was coated on the ELISA plate at 20 ug/ml; also called full-length MDM2
Assay: ELISA; full-length HDM2 coated on plate, GST fusion at 0-5.5 uM, anti-GST-HRP detection (FIG. 4)
Description: The well was incubated overnight at 4° C. Thereafter, bindings between other proteins were blocked with 300 ul of 3% skim milk w/PBS-T (at room temperature for 3 hours).
One hour after, the plate was washed with 300 uL of PBS-T, and treated with 100 uL of HRP conjugated-anti-GST antibody (Abcam, 1:2000). After the reaction at room temperature for one hour, the plate was treated with TMB substrate (Pierce, 100 uL) and left for 5 minute until coloring reaction occur, and then, treated with stop solution (Pierce, 100 uL). Thereafter, absorbance at 450 nm was measured using microwell reader (Molecular Device, 340PC384).

T1 sequence (Q00987 other isoform, or with tags, fused parts or gaps limits assumed): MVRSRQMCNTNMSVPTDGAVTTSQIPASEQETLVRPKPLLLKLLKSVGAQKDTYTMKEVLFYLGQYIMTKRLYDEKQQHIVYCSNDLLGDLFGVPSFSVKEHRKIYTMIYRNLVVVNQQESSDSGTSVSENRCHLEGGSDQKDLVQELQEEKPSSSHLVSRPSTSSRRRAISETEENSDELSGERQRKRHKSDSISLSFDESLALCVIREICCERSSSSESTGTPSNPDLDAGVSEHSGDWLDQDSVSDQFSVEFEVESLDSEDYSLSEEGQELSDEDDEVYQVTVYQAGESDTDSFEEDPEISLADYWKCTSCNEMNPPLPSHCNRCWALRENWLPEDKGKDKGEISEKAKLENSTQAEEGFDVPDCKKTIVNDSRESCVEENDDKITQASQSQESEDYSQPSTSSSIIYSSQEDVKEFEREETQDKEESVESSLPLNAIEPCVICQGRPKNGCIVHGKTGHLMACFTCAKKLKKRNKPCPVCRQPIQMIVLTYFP

binding result | Binder
binds | GST-M25 (modified three-helix bundle protein M25, an a3D variant, fused to GST) (designed binder, Tested as a GST fusion in ELISA and detected with an HRP-conjugated anti-GST antibody; GST is placed at the N-terminus from the name GST-M25 and the pGEX vector; not shown: GST carrier (from the GST cds of pGEX-4T3, GE Healthcare) and the vector junction between GST and M25) MGSWFEFAWRLLEIKTRLQALGGSEAELAAFEKEIAAFESELQAYKGKGNPEVEALRFEAYWIRLELQAYRHN
binds | GST-M11 (modified three-helix bundle protein M11, an a3D variant, fused to GST) (designed binder, Tested as a GST fusion in ELISA and detected with an HRP-conjugated anti-GST antibody; GST is placed at the N-terminus from the name GST-M11 and the pGEX vector; not shown: GST carrier (from the GST cds of pGEX-4T3, GE Healthcare) and the vector junction between GST and M11) MGSWAEFSQRLFAIYWRLLALGGSEAELAAFEKEIAAFESELQAYKGKGNPEVEALRKEAAAIRDELQAYRHN
